From PMC7397750, “Angiopoietin-like protein 8 differentially regulates ANGPTL3 and ANGPTL4 during postprandial partitioning of fatty acids[S]” (Journal of Lipid Research, 2020)
“And” between values parts separate entries of the source, which are not always exact repeats. Equal entries are not always repeated.

T1: ANGPTL8 (angiopoietin-like protein 8), endogenous in human serum (human (endogenous in serum), UniProt Q6UXH0 22-198)
T1 construct: ANGPTL8, human, circulating protein of donor serum; also called ANGPLT8; source: endogenous, human serum
T1 sequence (looked up): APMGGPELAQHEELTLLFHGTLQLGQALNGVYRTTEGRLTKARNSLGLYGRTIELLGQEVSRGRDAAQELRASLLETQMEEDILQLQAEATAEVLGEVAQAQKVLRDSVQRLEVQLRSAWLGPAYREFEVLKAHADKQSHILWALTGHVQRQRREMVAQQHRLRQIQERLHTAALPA

B1: C-terminal HIS-tagged ANGPTL4 (natural protein, human, UniProt Q9BY76-1 26-406, looked up)
chain: GPVQSKSPRFASWDEMNVLAHGLLQLGQGLREHAERTRSQLSALERRLSACGSACQGTEGSTDLPLAPESRVDPEVLHSLQTQLKAQNSRIQQLFHKVAQQQRHLEKQHLRIQHLQSQFGLLDHKHLDHEVAKPARRKRLPEMAQPVDPAHNVSRLHRLPRDCQELFQVGERQSGLFEIQPQGSPPFLVNCKMTSDGGWTVIQRRHDGSVDFNRPWEAYKAGFGDPHGEFWLGLEKVHSITGDRNSRLAVQLRDWDGNAELLQFSVHLGGEDTAYSLQLTAPVAGQLGATTVPPSGLSVPFSTWDQDHDLRRDKNCAKSLSGGWWFGTCSHSNLNGQYFRSIPQQRQKLKKGIFWKTWRGRYYPLQATTMLIQPMAAEAAS
B2: recombinant ANGPTL4/8 complex (complex, human)
chain 1: B1 chain
chain 2: T1 sequence (looked up)
B3: ANGPTL4 (angiopoietin-like protein 4), endogenous in human serum, N-terminally intact (natural protein, human (endogenous in serum), UniProt Q9BY76-1 26-406, looked up)
chain: B1 chain
notes: ANGPTL4, human, circulating protein of donor serum precipitated or captured with an N-terminal ANGPTL4 antibody; Full-length or N-terminal fragment; also called active ANGPTL4; source: endogenous, human serum
B4: LPL (lipoprotein lipase), avidin-tagged (enzyme)
chain: DRITGGKDFRDIESKFALRTPEDTAEDTCHLIPGVTESVANCHFNHSSKTFVVIHGWTVTGMYESWVPKLVAALYKREPDSNVIVVDWLSRAQQHYPVSAGYTKLVGQDVAKFMNWMADEFNYPLGNVHLLGYSLGAHAAGIAGSLTNKKVNRITGLDPAGPNFEYAEAPSRLSPDDADFVDVLHTFTRGSPGRSIGIQKPVGHVDIYPNGGTFQPGCNIGEALRVIAERGLGDVDQLVKCSHERSVHLFIDSLLNEENPSKAYRCNSKEAFEKGLCLSCRKNRCNNMGYEINKVRAKRSSKMYLKTRSQMPYKVFHYQVKIHFSGTESNTYTNQAFEISLYGTVAESENIPFTLPEVSTNKTYSFLLYTEVDIGELLMLKLKWISDSYFSWSNWWSSPGFDIGKIRVKAGETQKKVIFCSREKMSYLQKGKSPVIFVKCHDKSLNRKSG
modifications: biotin/Avi-type tag ('avidin-tagged') for capture on streptavidin, tag omitted; N-glycosylated. The species is not printed. The BLI methods give LPL as from Sigma, whose usual LPL is purified from …
B5: C-terminal HIS-tagged ANGPTL3 (natural protein, human, UniProt Q9Y5C1 17-460, looked up)
chain: SRIDQDNSSFDSLSPEPKSRFAMLDDVKILANGLLQLGHGLKDFVHKTKGQINDIFQKLNIFDQSFYDLSLQTSEIKEEEKELRRTTYKLQVKNEEVKNMSLELNSKLESLLEEKILLQQKVKYLEEQLTNLIQNQPETPEHPEVTSLKTFVEKQDNSIKDLLQTVEDQYKQLNQQHSQIKEIENQLRRTSIQEPTEISLSSKPRAPRTTPFLQLNEIRNVKHDGIPAECTTIYNRGEHTSGMYAIRPSNSQVFHVYCDVISGSPWTLIQHRIDGSQNFNETWENYKYGFGRLDGEFWLGLEKIYSIVKQSNYVLRIELEDWKDNKHYIEYSFYLGNHETNYTLHLVAITGNVPNAIPENKDLVFSTWDHKAKGHFNCPEGYSGGWWWHDECGENNLNGKYNKPRAKSKPERRRGLSWKSQNGRLYSIKSTKMLIHPTDSESFE
notes: source: HEK293, transient, purified (Ni-NTA, SEC)
B6: recombinant ANGPTL3/8 complex (complex, human)
chain 1: B5 chain
chain 2: T1 sequence (looked up)

What was measured:
[1] = molecular target: ANGPTL8 (angiopoietin-like protein 8), endogenous in human serum (human (endogenous in serum)) (UniProt Q6UXH0); test: affinity purification with mass spectrometry; immunoprecipitation of endogenous complexes from human serum with biotinylated anti-ANGPTL antibodies and streptavidin magnetic beads; trypsin/Lys-C digest; LC-MRM with spiked stable-isotope-labelled peptides; molar ratios from two peptides for each protein
[2] = molecular target: B4; test: cell-based or functional assay
[3] = molecular target: T1, ANGPTL8 (angiopoietin-like protein 8), …; test: affinity purification with mass spectrometry; immunoprecipitation of endogenous complexes from human serum with biotinylated anti-ANGPTL antibodies and streptavidin magnetic beads; trypsin/Lys-C digest; LC-MRM with spiked stable-isotope-labelled peptides; molar ratios from two peptides for each protein; details: partners not purified
[4] = molecular target: B2; test: BLI; Octet RED96e; avidin-tagged LPL immobilised on streptavidin biosensors; 50 nM ANGPTL protein or complex; dissociation in buffer-only wells; details: both partners purified

With “ANGPTL3 (angiopoietin-like protein 3), endogenous in human serum (natural protein)” the stoichiometry N (ANGPTL3 per ANGPTL8 (protein ratio)) [1] was 3.4 and 3.5.

With B1 the “IC50 of inhibition of LPL enzymatic activity; human LPL-stable expression cells, BODIPY-TG (EnzChek) substrate” value (“IC50 of inhibition … (EnzChek) substrate” for short) [2] was 0.29 nM and the “IC50 of inhibition of LPL enzymatic activity; human LPL-stable expression cells, VLDL substrate, NEFA released” value [2] was 0.44 nM.

With B2 the “IC50 of inhibition … (EnzChek) substrate” value [2] was 37 nM and the “IC50 of inhibition of LPL enzymatic activity; human LPL-stable expression cells, VLDL substrate, NEFA released” value [2] was 105 nM.

B3 was tested, and the “stoichiometry N” value [3] was 0.8 ANGPTL4 per ANGPTL8 (protein ratio).

B4 gave a Kd [4] of less than 0.001 nM, a koff [4] of less than 1e-07 s⁻¹ and a kon [4] of 48000 M⁻¹ s⁻¹.

With B5 the “IC50 of inhibition … (EnzChek) substrate” value [2] was 26 nM.

With B6 the “IC50 of inhibition … (EnzChek) substrate” value [2] was 0.14 nM.
